Measured values published in US8597902B2, “Peptide protection against ultraviolet light toxicity” (Helix Biomedix, Inc., priority 2009, dated 2013).
Ends that are not written are not given here.

B1: SEQ ID NO:10 peptide (SLYQS; Ser-Leu-Tyr-Gln-Ser), carboxy-terminal amidated (peptide)
peptide: SLYQS-NH2

Columns and labels:
[1] = target: T1, Activated human Chk2 enzyme (Homo sapiens, UniProt O96017); assay: K-LISA Checkpoint Activity Kit: Chk2 phosphorylation of biotinylated cdc25c surrogate substrate peptide; assay type: biochemical; conditions: peptide 50 μg/mL final concentration; for inhibition of the activity of Chk2 against the substrate peptide (in words): carboxy-terminal amidated peptides, absorbance 450/540 nm
T1 construct: purchased Sigma (St. Louis, MO)
T1 sequence (O96017 whole entry): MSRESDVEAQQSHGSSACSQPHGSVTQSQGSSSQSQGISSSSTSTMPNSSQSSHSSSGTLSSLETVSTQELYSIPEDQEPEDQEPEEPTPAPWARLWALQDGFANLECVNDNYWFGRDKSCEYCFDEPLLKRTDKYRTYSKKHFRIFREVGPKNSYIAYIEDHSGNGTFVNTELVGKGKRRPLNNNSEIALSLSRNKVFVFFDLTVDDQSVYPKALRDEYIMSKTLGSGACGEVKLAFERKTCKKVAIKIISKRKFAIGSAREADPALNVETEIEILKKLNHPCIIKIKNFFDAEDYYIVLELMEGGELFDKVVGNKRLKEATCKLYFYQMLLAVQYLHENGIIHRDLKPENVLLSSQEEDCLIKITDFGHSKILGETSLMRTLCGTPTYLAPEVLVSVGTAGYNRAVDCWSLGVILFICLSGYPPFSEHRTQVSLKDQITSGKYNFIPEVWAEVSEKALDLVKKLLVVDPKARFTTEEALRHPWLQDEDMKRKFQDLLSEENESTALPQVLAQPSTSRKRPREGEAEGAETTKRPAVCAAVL
Method: Activated human Chk2enzyme for these tests was obtained from Sigma (St. Louis, MO).
This incubation allowed for substrate phosphorylation by Chk2 and substrate capture in a single step. Following incubation, the phosphorylated substrate was detected using an anti-phosphoserine primary antibody, a horseradish peroxidase (HRP)-conjugated secondary antibody and TMB (tetramethylbenzidine) substrate for color development (the primary and secondary antibodies, and TMB, were provided in the K-LISA™ Checkpoint Activity Kit). Assay sensitivity was increased by the addition of the Stop solution provided in the kit. Relative Chk2 activity was determined by reading the absorbance of each well at dual wavelengths 450/540 nm.

[2] = target: Activated human checkpoint kinase 2 (Chk2) (human)

| Molecule | inhibition of the activity of Chk2 against the substrate peptide (in words) [1] | reduction of Chk2 phosphorylation activity ([1]; versus control Chk2 activity) | Reduction of Chk2 phosphorylation activity (K-LISA, absorbance 450/540 nm) [2] [%] |
| --- | --- | --- | --- |
| FHSIYQSH (FHSIYQSH-NH2; listed as Homo sapiens) [SEQ ID NO:6] | inhibited | – | – |
| HSLYQSH (HSLYQSH-NH2; listed as Homo sapiens) [SEQ ID NO:8] | inhibited | – | – |
| SLYQS (not fully specified (C-terminus); listed as Homo sapiens) [SEQ ID NO:10] | inhibited | about 48% | – |
| YHSIYQSHI (YHSIYQSHI-NH2; listed as Homo Sapiens) [SEQ ID NO:3] | inhibited | – | – |
| YHSLYESK (YHSLYESK-NH2; listed as Homo sapiens) [SEQ ID NO:5] | inhibited | – | – |
| YHSLYQSHL (YHSLYQSHL-NH2; listed as Homo sapiens) [SEQ ID NO:2] | inhibited | – | – |
| B1 | – | – | 48 |
